Columns and labels:
[1] = molecular target: human PDGFR β on HEK293-PDGFR β cells (human) (UniProt P09619); test: HEK293-PDGFRβ cells with 500 uM liposome on ice, plate reader
[2] = molecular target: human PDGFR β on HEK293-PDGFR β cells (human) (UniProt P09619); test: HEK293-PDGFRβ cells with 500 uM liposome, plate reader (data not shown)
[3] = molecular target: human PDGFR β on HEK293-PDGFR β cells (human) (UniProt P09619); test: time course on HEK293-PDGFRβ cells, plate reader; not statistically significant
[4] = molecular target: human PDGFR β on HEK293-PDGFR β cells (human) (UniProt P09619); test: HEK293-PDGFRβ cells with 500 uM liposome, plate reader
[5] = molecular target: human PDGFR β on HEK293-PDGFR β cells (human) (UniProt P09619); test: time course on HEK293-PDGFRβ cells, plate reader
[6] = molecular target: human PDGFR β ECD (U-protein Express, Utrecht) (human) (UniProt P09619); test: dose response ELISA, PDGFR β ECD coated at 2 µg/ml, rabbit anti-VHH detection
[7] = molecular target: T1, human PDGFR β extra-cellular domain (ECD), Fc- and His-tagged (Sino Biological) (human, UniProt P09619 33-532); test: SPR (Biacore 3000), Fc/His PDGFR β ECD captured on protein A; 1B5 construct not stated
T1 construct: extracellular domain; Bought; also called hECD; Fc/His-tagged PDGFR β ECD; not shown: Fc tag and His tag
Description: FIG. 11: VHH (flag-his-tagged, or conjugated with HL488, NOTA or 800 CW) binding to human extracellular domain (ECD) of PDGFR β assessed with surface plasmon resonance (SPR). Fc/His-tagged PDGFR β ECD was bound to protein A chemically conjugated to CM4 sensor chip. Binding of VHHs was tested at 0.39-50 nM. Shown are representative SPR Biacore traces of tagged or conjugated 1B5 VHH (panels A); tagged or conjugated 1D4 VHH (panels B); tagged or conjugated 1H4 VHH (panels C) or tagged VHH 1E12 (panel D).
SPR analysis was performed using the Biacore 3000 instrument (GE Healthcare). Protein A was chemically bound to a CM4 sensor chip (GE Healthcare) according to the primary amine procedure to approximately 2100 response units (RU). Fc/His-tagged PDGFR β ECD at 0.4-2.07 ng/ul was bound to protein A at flow rate of 35 ul/min. Run buffer HBS-EP (GE Healthcare; 0.01 M HEPES pH 7.4, 0.15 M NaCl, 3 mM EDTA, 0.005% v/v Surfactant P20) was used for VHHs 1D4, 1H4 and 1E12 conjugates at 50, 25, 12.5, 6.25, 3.13, 1.56, 0.78 and 0.39 nM. For 1B5 conjugates, HBS-EP+0.5 M NaSCN was as run buffer to reduce non-specific binding to a control path without PDGFR β ECD. A flow rate 70 ul/min was used for VHH injections in volumes of 150 ul. Regeneration of the sensor CM4 chip was performed by three successive injections of c. 30 s 10 mM glycine-HCl pH 2, 10 mM glycine-HCl pH 1.5, and 0.5 M NaSCN/10 mM NaOH.

[8] = molecular target: human PDGFR β on HEK293-PDGFR β cells (human) (UniProt P09619); test: cell binding on ice for 1 h, fluorescence plate reader
[9] = molecular target: human PDGFR β on HEK293-PDGFR β cells (human) (UniProt P09619); test: FACS dose response, 1 h at 37° C.
[10] = molecular target: human PDGFR β on HEK293-PDGFR β cells (human) (UniProt P09619); test: FACS, 1-10 nM VHH-HL488, 1 h
[11] = molecular target: human PDGFR β on HEK293-PDGFR β cells (human) (UniProt P09619); test: FACS dose response, dialyzed VHH-HL488 batch (data not shown)
[12] = molecular target: human PDGFR β on HEK293-PDGFR β cells (human) (UniProt P09619); test: FACS dose response, 1 h at 37° C. (MFI)
[13] = molecular target: T2, human PDGFRa (Sino Biological; Cat. Number 10556-HCCH) (human, UniProt P16234 24-524, limits assumed); test: direct ELISA, PDGFRa coated, streptavidin-HRP detection
T2 construct: Bought; construct not described; also called PDGFRα
Description: (§1) 96-well maxisorp (Nunc) immunosorp plates were coated with 2 ug/ml of human PDGFRa (Sino Biological; Cat. Number; 10556-HCCH) or 2 ug/ml human EGFR/HER1/ErbB1 Protein (His Tag, Sino Biological; Cat. Number; 10001-H08H) in PBS, 100 ul per well, at 4C overnight. Wells were washed thrice in PBS. Unspecific binding sites were blocked in 4% BSA/PBS for 1 h at RT, followed by washing thrice in PBS. VHH-biotin conjugates, diluted at 0.01-100 nM in 1% BSA/PBS, were incubated for 1 h at RT, followed by washing thrice in PBS. Streptavidin-horseradish peroxidase (HRP; GeneTex) was diluted 1:40,000 in 1% BSA/PBS and was incubated for 1 h at RT. PDGFRa or EGFR was detected with positive control antibodies rabbit anti-human PDGFRa/CD140a Antibody, (Cat no: 10556-R065) or rabbit anti-human EGFR/HER1/ErbB1 (Catalog no: 10001-R021, both from Sino Biological) diluted in 1% BSA/PBS at 1:5000 and were incubated for 1 h at RT, shaking. Secondary HRP-conjugated anti-rabbit-antibody was diluted at 1:5000 in 1% BSA/PBS and was incubated for 1 h at RT, shaking. Wells were washed 6 times in PBS. o-Phenylenediamine dihydrochloride (OPD; Sigma-Aldrich) was used as HRP substrate at 0.4 mg/ml in 0.05 M phosphate-citrate buffer pH 5.0 with 0.03% sodium perborate (Sigma-Aldrich), prepared according to the manufacturer's recommendations, and was used in volume of 100 ul per well. Reaction was allowed to proceed for 30 min at RT in dark, and was stopped by adding 50 ul of 1.5 M HCl. Optical density was measured at 492 nm on a Synergy H1 microplate reader (BioTek).
VHH-biotin binding to human PDGFRa was assessed using an ELISA, where wells were coated with PDGFRa, and VHH-biotin binding was detected using streptavidin-HRP with OPD as a substrate.

[14] = molecular target: T1, human PDGFR β extra-cellular domain …; test: biotin-streptavidin ELISA, human PDGFR β ECD coated at 1 ug/ml
Description: In this example, the binding affinity of biotin-conjugated VHHs 1B5 and 1E12 to either human or mouse PDGFR β extra-cellular domain (ECD) was assessed using biotin-streptavidin ELISA. Human or mouse PDGFR β ECD was coated on immunoassay wells, where 1B5-biotin or 1E12-biotin were captured. Binding was detected using streptavidin-HRP and ODP as a substrate.
ELISA Method 96-well maxisorp (Nunc) immunosorp plates were coated with 1 ug/ml or 2 ug/ml of PDGFR β extracellular domain (ECD; Fc- and His-tagged, Sino Biological) or mouse PDGFR β ECD (R&D Systems) 4 ug/ml in PBS, 100 ul per well, at 4C overnight. Wells were washed thrice in PBS. Unspecific binding sites were blocked in 4% BSA/PBS for 1h at RT, followed by washing thrice in PBS. VHHs 1B5-biotin or 1E12-biotin, diluted at 0.01-100 nM in 1% BSA/PBS, was allowed to bind on ECD for 1 h at RT, followed by washing thrice in PBS. Streptavidin-horseradish peroxidase (HRP; GeneTex) was diluted 1:10,000 in 1% BSA/PBS and was incubated for 1 h at RT. […] Optical density was measured at 492 nm on a Synergy H1 microplate reader (BioTek). […]

[15] = molecular target: T3, human EGFR/HER1/ErbB1 Protein (His Tag, Sino Biological; Cat. Number 10001-H08H) (human, UniProt P00533 25-645); test: direct ELISA, EGFR coated, streptavidin-HRP detection
T3 construct: Bought; construct not described; not shown: His tag
Description: as §1

B1: 1B5-liposome-100 (protein)
VHH: EVQLVESGGGLVQPGGSLRLSCVASGFSFSESAMSWVRQAPGKGLEWLSGISSGGGRSTTYAESVEGRFTISRDDAKNTLMLQMNSLKSEDTAVYYCAKTGYCSGYNCNFAPRGQGTQVTVSS
modifications: coupled to maleimide-PEG-DSPE and post-inserted into calcein/rhodamine PE liposomes; 100 nanobodies per liposome
fold calcein fluorescence over non-targeted control, on ice (binding) [1]: 1.8 fold | fold rhodamine PE signal, 37° C. [2]: 2.4 fold | fold calcein fluorescence over liposome-0, 0 h (binding and/or uptake) [3]: 2.2 fold | fold calcein fluorescence over liposome-0, 1 h (binding and/or uptake) [3]: 2.8 fold | fold calcein fluorescence over non-targeted liposome-0, 37° C. (binding and uptake) [4]: 3.4 fold | fold calcein fluorescence over liposome-0, 3 h (uptake) [5]: 4.7 fold | fold calcein fluorescence over liposome-0, 6 h (uptake) [5]: 5.1 fold

B2: QPD-1H4 (VHH)
VHH: EVQLVESGGGLVQPGGSLRVSCSASWRTGNPFAMAWFRQAPGKERELIARISWTAGRTEYAESAKGRFTISRDVAKKTMYLQMNSLTPEDTGVYFCAARFVPSSGPTVFDTWGQGTQVTVSS
apparent affinity [6]: < 1 nM

B3: QPD-1B5 (VHH)
VHH: B1 VHH
notes: Purified, unconjugated VHH; also called VHH 1B5
Kd [7]: 0.004 to 0.005 nM | apparent affinity [6]: 1 nM

B4: QPD-1E12 (VHH)
VHH: EVQLVESGGGLVQAGGSLRLSCAPSERSFSAYLMGWFRQAQGKEREFVAAWRWPTSTTYYSDSGKGRFTITGDNAKNTVELEMNSLKPEDTAVYYCAARRGILYGPATSPTAYDFWGQGTQVTVSS
apparent affinity [6]: 10 nM

B5: 1B5-HL488 (VHH, not shown: small tags and cut ends)
VHH: B1 VHH
modifications: HiLyte Fluor 488-maleimide on the C-terminal cysteine of the C-Direct tag
detection limit [8]: 1 nM | detection limit [9]: 0.1 nM | MFI at 4° C. (binding) as percent of MFI at 37° C. (binding and uptake) [10]: 52 to 58% | concentration at which detectable by FACS [11]: 1 nM

B6: 1E12-HL488 (VHH, not shown: small tags and cut ends)
VHH: B4 VHH
modifications: HiLyte Fluor 488-maleimide on the C-terminal cysteine of the C-Direct tag
lowest concentration detectably bound or taken up (percentage of HL488-positive population) [9]: 10 nM | detection limit [12]: 100 nM

B7: 1D4-HL488 (VHH, not shown: small tags and cut ends)
VHH: EVQLVESGGGLVQAGDSLRLSCAVSGRAQSRDVVGWFRQAPGKEREFLALVTRSYSTYYGASVKGRFTISRDNAKNTVHLEMNSLKPEDTGVYYCAADQGFCSGSGCYDWRTFHVWGQGTQVTVSS
modifications: HiLyte Fluor 488-maleimide on the C-terminal cysteine of the C-Direct tag
detection limit [9]: 0.1 nM | MFI at 4° C. (binding) as percent of MFI at 37° C. (binding and uptake) [10]: 53 to 61% | concentration at which detectable by FACS [11]: 1 nM

B8: 1H4-HL488 (VHH, not shown: small tags and cut ends)
VHH: B2 VHH
modifications: HiLyte Fluor 488-maleimide on the C-terminal cysteine of the C-Direct tag
detection limit [9]: 0.1 nM | MFI at 4° C. (binding) as percent of MFI at 37° C. (binding and uptake) [10]: 65 to 66% | concentration at which detectable by FACS [11]: 10 nM

B9: 1B5-biotin (VHH)
VHH: B1 VHH
modifications: Biotin-maleimide on the C-terminal cysteine of the C-Direct tag
notes: ID NO: 25 or 26; also called VHH 1B5-biotin; biotin-conjugated 1B5; not shown: C-terminal C-Direct tag with a free cysteine and an EPEA purification tag (vector pYQVQ11)
binding result [13]: no binding (tested: 0.01-100 nM) | EC50 [14]: 0.117 nM | binding result [15]: no binding (tested: 0.01-100 nM)

B10: 1D4-biotin (VHH)
VHH: B7 VHH
modifications: Biotin-maleimide on the C-terminal cysteine of the C-Direct tag
notes: ID NO: 27 or 28; also called biotin-conjugated 1D4; VHH-biotin; not shown: C-terminal C-Direct tag with a free cysteine and an EPEA purification tag (vector pYQVQ11)
binding result [13]: no binding (tested: 0.01-100 nM) | binding result [15]: no binding (tested: 0.01-100 nM)

B11: 1H4-biotin (VHH)
VHH: B2 VHH
modifications: Biotin-maleimide on the C-terminal cysteine of the C-Direct tag
notes: ID NO: 29 or 30; also called biotin-conjugated 1H4; VHH-biotin; not shown: C-terminal C-Direct tag with a free cysteine and an EPEA purification tag (vector pYQVQ11)
binding result [13]: no binding (tested: 0.01-100 nM) | binding result [15]: no binding (tested: 0.01-100 nM)
